From patent US20120021972A1 (CADILA HEALTHCARE, published 2012)
Starred links: 1 amine or outer side, 2 acyl side, 3 side chain; linkers in the order of their positions; H or OH if unused. Non-standard residues stand in square brackets, D forms with d. No end group written: not given here. *: point of attachment. NMe2F‑APPA = N-methyl-2-amino-5-(2-fluorophenyl)pentanoic acid, CN([C@@H](CCCc1ccccc1F)C(=O)[*:2])[*:1]; 2,4‑diF‑APPA = 2-amino-5-(2,4-difluorophenyl)pentanoic acid, O=C([C@H](CCCc1ccc(F)cc1F)N[*:1])[*:2]; AMCB = 2-amino-5-(4-chloro-2-methylphenyl)pentanoic acid, Cc1cc(Cl)ccc1CCC[C@H](N[*:1])C(=O)[*:2]; ACPP = 2-amino-5-(3-chlorophenyl)pentanoic acid, O=C([C@H](CCCc1cccc(Cl)c1)N[*:1])[*:2]; 2F,4CF3‑APPA = 2-amino-5-(2-fluoro-4-(trifluoromethyl)phenyl)pentanoic acid; Bip(2'-Et-4'-OMe) = CCc1cc(OC)ccc1-c1ccc(C[C@H](N)C(=O)O)cc1; Leu(5,5,5,5',5',5'-F6) = N[C@@H](CC(C(F)(F)F)C(F)(F)F)C(=O)O; Nva(5-(3,5-Me2Ph)) = Cc1cc(C)cc(CCC[C@H](N)C(=O)O)c1; 2F‑APPA = 2-amino-5-(2-fluorophenyl)pentanoic acid; αMePhe(2-F) = C[C@](N)(Cc1ccccc1F)C(=O)O; NMeBip(OMe) = N-methylated Bip(OMe); hhPhe = N[C@@H](CCCc1ccccc1)C(=O)O; 2,4‑diCl‑APPA = not defined here; NMeD = CN[C@@H](CC(=O)O)C(=O)O; aThr = C[C@H](O)[C@H](N)C(=O)O; αMeP = C[C@@]1(C(=O)O)CCCN1; NMeAPPA = not defined here; Ac5c = NC1(C(=O)O)CCCC1; CNB = not defined here; Aib = CC(C)(N)C(=O)O; Moc = COC(=O)*

Target: human glucagon receptor (human, UniProt P47871 26-477)
Assay: cell-based or functional assay

Binder	inhibition of cAMP production, 1 nM	inhibition of cAMP production, 10 nM	inhibition of cAMP production, 100 nM	inhibition of cAMP production, 1 µM	inhibition of cAMP production, 10 µM
Moc-H[Aib]QG[aThr][αMePhe(2-F)][aThr]SD[Bip(2'-Et-4'-OMe)][2F‑APPA] (also: reduced (CH2) bond between 10 and 11) [Seq. ID. No. 188: CH3OCO-H-Aib-QG-T(allo)-(α-Me-2F-Phe)-T(allo)-SD-Bip(OMe)-(CH2)-(2F-APPA)]	5 pmol/ml/µg prt	3 pmol/ml/µg prt	1 pmol/ml/µg prt	0 pmol/ml/µg prt	0 pmol/ml/µg prt
H[Ac5c]QGTFTSD[Bip(2'-Et-4'-OMe)][Nva(5-(3,5-Me2Ph))] [Seq. ID. No. 26: H-(APP)-QGTFTSD-Bip(OMe)-(ADMP)]	15 pmol/ml/µg prt	12 pmol/ml/µg prt	8 pmol/ml/µg prt	4 pmol/ml/µg prt	2 pmol/ml/µg prt
Ac-H[Aib][Leu(5,5,5,5',5',5'-F6)]GT[αMePhe(2-F)]TSD[Bip(2'-Et-4'-OMe)][2F‑APPA] [Seq. ID. No. 212: CH3CO-H-Aib-(Hfl)-GT-(α-Me-2F-Phe)-TSD-Bip(OMe)-(2F-APPA)]	10 pmol/ml/µg prt	8 pmol/ml/µg prt	6 pmol/ml/µg prt	4 pmol/ml/µg prt	1 pmol/ml/µg prt
HSQGTFTSD[Bip(2'-Et-4'-OMe)][2F,4CF3‑APPA] [Seq. ID. No. 49: HSQGTFTSD-Bip(OMe)-(2F, 4CF3-APPA)]	10 pmol/ml/µg prt	8 pmol/ml/µg prt	6 pmol/ml/µg prt	2 pmol/ml/µg prt	0 pmol/ml/µg prt
H[Aib][CNB]GTFTSD[Bip(2'-Et-4'-OMe)][2,4‑diF‑APPA] (reading uncertain) [Seq. ID. No. 78: H-Aib-(CNB)-GTFTSD-Bip(OMe)-(2,4-diF-APPA)]	22 pmol/ml/µg prt	21 pmol/ml/µg prt	20 pmol/ml/µg prt	18 pmol/ml/µg prt	18 pmol/ml/µg prt
Moc-H[Aib]QGT[αMePhe(2-F)]TSD[Bip(2'-Et-4'-OMe)][hhPhe] (also: thioamide bonds between residues 9-10 and 10-11) [Seq. ID. No. 170: CH3OCO-H-Aib-QGT-(α-Me-2F-Phe)-TSD-(C═S)-Bip(OMe)-(C═S)-(APPA)]	6 pmol/ml/µg prt	5 pmol/ml/µg prt	2 pmol/ml/µg prt	0 pmol/ml/µg prt	0 pmol/ml/µg prt
H[Aib][CNB]G[aThr][αMePhe(2-F)][aThr]SD[Bip(2'-Et-4'-OMe)][NMe2F‑APPA] (reading uncertain) [Seq. ID. No. 132: H-Aib-(CNB)-G-T(allo)-(α-Me-2F-Phe)-T(allo)-SD-Bip(OMe)-((NMe)(2F-APPA))]	15 pmol/ml/µg prt	12 pmol/ml/µg prt	8 pmol/ml/µg prt	4 pmol/ml/µg prt	2 pmol/ml/µg prt
H[Ac5c]QGTFTSD[Bip(2'-Et-4'-OMe)][AMCB] [Seq. ID. No. 28: H-(APP)-QGTFTSD-Bip(OMe)-(AMCB)]	14 pmol/ml/µg prt	11 pmol/ml/µg prt	7 pmol/ml/µg prt	3 pmol/ml/µg prt	0 pmol/ml/µg prt
H[Aib][Leu(5,5,5,5',5',5'-F6)]G[aThr][αMePhe(2-F)][aThr]SD[Bip(2'-Et-4'-OMe)][2F‑APPA] (also: thioamide (C═S) bond Z10-Z11) [Seq. ID. No. 218: H-Aib-(Hfl)-G-T(allo)-(α-Me-2F-Phe)-T(allo)-SD-Bip(OMe)-(C═S)-(2F-APPA)]	9 pmol/ml/µg prt	6 pmol/ml/µg prt	5 pmol/ml/µg prt	3 pmol/ml/µg prt	0 pmol/ml/µg prt
Ac-H[Aib]QG[aThr][αMePhe(2-F)][aThr]SD[Bip(2'-Et-4'-OMe)][2F‑APPA] (also: reduced (CH2) bonds between 9-10 and 10-11) [Seq. ID. No. 199: CH3CO-H-Aib-QG-T(allo)-(α-Me-2F-Phe)-T(allo)-SD-(CH2)-Bip(OMe)-(CH2)-(2F-APPA)]	4 pmol/ml/µg prt	3 pmol/ml/µg prt	0 pmol/ml/µg prt	0 pmol/ml/µg prt	0 pmol/ml/µg prt
Moc-H[Aib]QG[aThr][αMePhe(2-F)][aThr]S[NMeD][NMeBip(OMe)][NMeAPPA] (reading uncertain)	10 pmol/ml/µg prt	8 pmol/ml/µg prt	6 pmol/ml/µg prt	4 pmol/ml/µg prt	1 pmol/ml/µg prt
H[Aib][CNB]GTFTSD[Bip(2'-Et-4'-OMe)][ACPP] (reading uncertain) [Seq. ID. No. 31: H-Aib-(CNB)-GTFTSD-Bip(OMe)-(ACPP)]	6 pmol/ml/µg prt	5 pmol/ml/µg prt	2 pmol/ml/µg prt	0 pmol/ml/µg prt	0 pmol/ml/µg prt
H[αMeP]QGTFTSD[Bip(2'-Et-4'-OMe)][hhPhe] [Seq. ID. No. 9: H-(α-Me-Pro)-QGTFTSD-Bip(OMe)-(APPA)]	5 pmol/ml/µg prt	3 pmol/ml/µg prt	0 pmol/ml/µg prt	0 pmol/ml/µg prt	0 pmol/ml/µg prt
H[Aib][CNB]G[aThr][αMePhe(2-F)][aThr]SD[NMeBip(OMe)][NMeAPPA] (reading uncertain) [Seq. ID. No. 142: H-Aib-(CNB)-G-T(allo)-(α-Me-2F-Phe)-T(allo)-SD-((NMe)Bip(OMe))-((NMe)(APPA))]	10 pmol/ml/µg prt	8 pmol/ml/µg prt	6 pmol/ml/µg prt	2 pmol/ml/µg prt	0 pmol/ml/µg prt
HSQGTFTSD[Bip(2'-Et-4'-OMe)][2,4‑diCl‑APPA] (reading uncertain) [Seq. ID. No. 51: HSQGTFTSD-Bip(OMe)-(2,4-diCl-APPA)]	5 pmol/ml/µg prt	3 pmol/ml/µg prt	0 pmol/ml/µg prt	0 pmol/ml/µg prt	0 pmol/ml/µg prt

The remaining lines, values ahead:

inhibition of cAMP production, 1 nM	inhibition of cAMP production, 10 nM	inhibition of cAMP production, 100 nM	inhibition of cAMP production, 1 µM	inhibition of cAMP production, 10 µM	Binder
4 pmol/ml/µg prt	2 pmol/ml/µg prt	2 pmol/ml/µg prt	0 pmol/ml/µg prt	0 pmol/ml/µg prt	H[Aib]QG[aThr][αMePhe(2-F)][aThr]SD[Bip(2'-Et-4'-OMe)][2F‑APPA] (also: reduced (CH2) bond between 10 and 11) [Seq. ID. No. 191: H-Aib-QG-T(allo)-(α-Me-2F-Phe)-T(allo)-SD-Bip(OMe)-(CH2)-(2F-APPA)]
4 pmol/ml/µg prt	2 pmol/ml/µg prt	0 pmol/ml/µg prt	0 pmol/ml/µg prt	0 pmol/ml/µg prt	H[Aib][CNB]G[aThr][αMePhe(2-F)][aThr]SD[Bip(2'-Et-4'-OMe)][2F‑APPA] (reading uncertain; also: reduced (CH2) bond between 10 and 11) [Seq. ID. No. 192: H-Aib-(CNB)-G-T(allo)-(α-Me-2F-Phe)-T(allo)-SD-Bip(OMe)-(CH2)-(2F-APPA)]
0 pmol/ml/µg prt	0 pmol/ml/µg prt	0 pmol/ml/µg prt	0 pmol/ml/µg prt	0 pmol/ml/µg prt	H[Aib]QG[aThr][αMePhe(2-F)][aThr]SD[Bip(2'-Et-4'-OMe)][hhPhe] (also: thioamide bonds between residues 9-10 and 10-11) [Seq. ID. No. 177: H-Aib-QG-T(allo)-(α-Me-2F-Phe)-T(allo)-SD-(C═S)-Bip(OMe)-(C═S)-(APPA)]
6 pmol/ml/µg prt	5 pmol/ml/µg prt	3 pmol/ml/µg prt	0 pmol/ml/µg prt	0 pmol/ml/µg prt	H-HSQGTFTSD[Bip(2'-Et-4'-OMe)][hhPhe]-NH2 [Seq. ID. No. 5: HSQGTFTSD-Bip(OMe)-(APPA)]
4 pmol/ml/µg prt	2 pmol/ml/µg prt	0 pmol/ml/µg prt	0 pmol/ml/µg prt	0 pmol/ml/µg prt	Moc-H[Aib]QGT[αMePhe(2-F)]TSD[Bip(2'-Et-4'-OMe)][2F‑APPA] (also: thioamide bonds between residues 9-10 and 10-11) [Seq. ID. No. 172: CH3OCO-H-Aib-QGT-(α-Me-2F-Phe)-TSD-(C═S)-Bip(OMe)-(C═S)-(2F-APPA)]
14 pmol/ml/µg prt	11 pmol/ml/µg prt	7 pmol/ml/µg prt	3 pmol/ml/µg prt	0 pmol/ml/µg prt	Ac-H[Aib]QG[aThr][αMePhe(2-F)][aThr]SD[Bip(2'-Et-4'-OMe)][hhPhe] (also: reduced (CH2) bonds between 9-10 and 10-11) [Seq. ID. No. 197: CH3CO-H-Aib-QG-T(allo)-(α-Me-2F-Phe)-T(allo)-SD-(CH2)-Bip(OMe)-(CH2)-(APPA)]
5 pmol/ml/µg prt	3 pmol/ml/µg prt	1 pmol/ml/µg prt	0 pmol/ml/µg prt	0 pmol/ml/µg prt	Moc-H[Aib][CNB]GT[αMePhe(2-F)]TSD[Bip(2'-Et-4'-OMe)][2F‑APPA] (reading uncertain) [Seq. ID. No. 208: CH3OCO-H-Aib-(CNB)-GT-(α-Me-2F-Phe)-TSD-Bip(OMe)-(2F-APPA)]
3 pmol/ml/µg prt	1 pmol/ml/µg prt	0 pmol/ml/µg prt	0 pmol/ml/µg prt	0 pmol/ml/µg prt	H[Aib]QG[aThr][αMePhe(2-F)][aThr]SD[Bip(2'-Et-4'-OMe)][hhPhe] (also: reduced (CH2) bond between 10 and 11) [Seq. ID. No. 189: H-Aib-QG-T(allo)-(α-Me-2F-Phe)-T(allo)-SD-Bip(OMe)-(CH2)-(APPA)]
10 pmol/ml/µg prt	8 pmol/ml/µg prt	6 pmol/ml/µg prt	4 pmol/ml/µg prt	1 pmol/ml/µg prt	H[Aib]QGTFTSD[Bip(2'-Et-4'-OMe)][2F,4CF3‑APPA] [Seq. ID. No. 65: H-Aib-QGTFTSD-Bip(OMe)-(2F,4CF3-APPA)]
15 pmol/ml/µg prt	12 pmol/ml/µg prt	8 pmol/ml/µg prt	4 pmol/ml/µg prt	2 pmol/ml/µg prt	Ac-H[Aib]QGT[αMePhe(2-F)]TSD[Bip(2'-Et-4'-OMe)][2F‑APPA] (also: reduced (CH2) bonds between 9-10 and 10-11) [Seq. ID. No. 195: CH3CO-H-Aib-QGT-(α-Me-2F-Phe)-TSD-(CH2)-Bip(OMe)-(CH2)-(2F-APPA)]
